Changes are numbered by the printed parent chain.
T1: human soluble IL-6R, recombinant (human, UniProt P08887 20-358)
T1 construct: also called human IL6-R; bio-IL-6R
T1 sequence (looked up): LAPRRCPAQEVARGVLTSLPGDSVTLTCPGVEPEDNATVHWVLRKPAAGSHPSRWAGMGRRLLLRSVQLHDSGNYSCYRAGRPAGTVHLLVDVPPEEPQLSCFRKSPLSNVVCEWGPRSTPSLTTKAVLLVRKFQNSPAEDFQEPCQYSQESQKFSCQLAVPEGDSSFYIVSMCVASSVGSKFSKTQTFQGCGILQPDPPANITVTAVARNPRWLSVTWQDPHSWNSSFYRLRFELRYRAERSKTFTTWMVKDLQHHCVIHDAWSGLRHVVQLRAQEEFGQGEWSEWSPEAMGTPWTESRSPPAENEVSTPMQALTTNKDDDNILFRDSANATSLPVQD

T2: cyno IL-6R on CHO-K1 cells, clone CyIL6R 405 (cynomolgus monkey (extracellular domain), UniProt A0A2K5WN54 60-499)
T2 construct: whole, on cells; chimeric construct on cells; also called CHO K1-cynomolgous IL-6R
T2 sequence: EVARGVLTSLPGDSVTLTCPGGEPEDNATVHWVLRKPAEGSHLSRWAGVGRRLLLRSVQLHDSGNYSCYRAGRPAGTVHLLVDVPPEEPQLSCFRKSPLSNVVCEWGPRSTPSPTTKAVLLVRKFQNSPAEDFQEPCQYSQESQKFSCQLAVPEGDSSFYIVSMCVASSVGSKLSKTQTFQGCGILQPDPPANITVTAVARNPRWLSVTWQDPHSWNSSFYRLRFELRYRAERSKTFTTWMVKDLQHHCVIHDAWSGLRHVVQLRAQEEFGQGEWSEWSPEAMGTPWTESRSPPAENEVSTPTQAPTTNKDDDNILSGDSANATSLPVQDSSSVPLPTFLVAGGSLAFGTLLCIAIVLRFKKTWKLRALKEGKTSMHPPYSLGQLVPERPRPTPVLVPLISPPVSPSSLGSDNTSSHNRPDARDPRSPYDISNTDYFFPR

T3: hybrid IL-6R (human, with rat sequence in domain I)
T3 construct: produced in HEK.EBNA cells and purified
T3 chain: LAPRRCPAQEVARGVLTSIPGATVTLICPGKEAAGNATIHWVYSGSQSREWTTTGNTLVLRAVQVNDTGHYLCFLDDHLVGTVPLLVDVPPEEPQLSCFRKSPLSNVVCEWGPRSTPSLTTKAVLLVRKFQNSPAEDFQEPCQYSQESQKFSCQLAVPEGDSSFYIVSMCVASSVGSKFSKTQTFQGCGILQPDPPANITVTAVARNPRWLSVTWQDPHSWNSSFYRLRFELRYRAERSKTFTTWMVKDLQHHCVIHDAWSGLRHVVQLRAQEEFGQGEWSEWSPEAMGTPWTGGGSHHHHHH

B1: IL6RPMP120A5 (VHH)
VHH: EVQLVESGGGLVQAGGSLSLSCATSGRTISDDTMAWFRQAPGKEREFVAIITFNGARTHYSDSVRDRFTISRDNAKNTVYLQMNSLKSEDTAVYYCAASTKYYSSTYNYIHPAFYDIWGQGTQVTVSS
notes: family 28; also called IL6R120A5
B2: IL6RPMP103C7 (VHH)
VHH: B1 VHH with I50T, N54S, N84D
notes: family 28
B3: IL6RPMP103C4 (VHH)
VHH: EVQLVESGGGLVEAGGSLRLSCAAAGRTLSSYSMAWFRQAPGKEREFVAIIRGNPSRTYHSDSVKGRFTASRDNAKNTVYLQMNRLEPEDTAVYYCAADPPPFASDYSAPQSYDYWGQGTQVTVSS
notes: family 19; also called IL6R103C4
B4: IL6RPMP105E1 (VHH)
VHH: EVQLVESGGGLVQAGGSLRLSCAASGSIFSIKAMGWYRQAPGKQRELVARITSGGSTYYADSVKGRFTISRDNAKNTVYLQMNSLKPEDTAVFYCNAIVTDSDYDLGNDYWGQGTQVTVSS
notes: family 7; also called PMP105E01; IL6R105E1
B5: IL6RPMP104E4 (VHH)
VHH: EVQLVESGGGTVQAGGSLKLSCAASGRTFTNYAMGWFRQAPGKEREFVAAIAYATHFADSVKGRFTISRGNAKNTVYLQMNSLKPEDTAVYYCAADLSLSKMVSKITSDMDYWGKGTLVTVSS
notes: family 8; also called PMP104E04; IL6R104E4
B6: IL6RPMP107H2 (VHH)
VHH: KVQLVESGGGLVQPGGSLRLSCAASGFTFSSYAMSWVRRAPGKGLEWVSAINSDGTGSSYAPFVTGRFTASRDNAKNTLYLQMNSLKPEDTAVYYCTNSNRYDYADFSAVRGQGTQVTVSS
notes: family 27; also called IL6R107H2
B7: reference Fab (Fab, V domains shown)
VH: QVQLQESGPGLVRPSQTLSLTCTVSGYSITSDHAWSWVRQPPGRGLEWIGYISYSGITTYNPSLKSRVTMLRDTSKNQFSLRLSSVTAADTAVYYCARSLARTTAMDYWGQGSLVTVSS
VL: DIQMTQSPSSLSASVGDRVTITCRASQDISSYLNWYQQKPGKAPKLLIYYTSRLHSGVPSRFSGSGSGTDFTFTISSLQPEDIATYYCQQGNTLPYTFGQGTKVEIKR
notes: expressed in the periplasm of E. coli
B8: IL6RPMP101B12 (VHH)
VHH: EVQLVESGGGLVQPGGSLRLSCAASGVTLDYYAIGWFRQAPGKEREGVSSISSNDGSTFYADSVKGRFTISRDKAKNTVYLQMNSLKPEDTAVYYCAATYLTAQAVGVPVAYYEFDYWGQGTQVTVSS
notes: family 2; also called IL6R101B12

These binders were tested against IL-6R on the surface of TF-1 cells (UniProt P08887) (assay: cell-based or functional assay).
Sequence of IL-6R on the surface of TF-1 cells (P08887 20-468 limits assumed): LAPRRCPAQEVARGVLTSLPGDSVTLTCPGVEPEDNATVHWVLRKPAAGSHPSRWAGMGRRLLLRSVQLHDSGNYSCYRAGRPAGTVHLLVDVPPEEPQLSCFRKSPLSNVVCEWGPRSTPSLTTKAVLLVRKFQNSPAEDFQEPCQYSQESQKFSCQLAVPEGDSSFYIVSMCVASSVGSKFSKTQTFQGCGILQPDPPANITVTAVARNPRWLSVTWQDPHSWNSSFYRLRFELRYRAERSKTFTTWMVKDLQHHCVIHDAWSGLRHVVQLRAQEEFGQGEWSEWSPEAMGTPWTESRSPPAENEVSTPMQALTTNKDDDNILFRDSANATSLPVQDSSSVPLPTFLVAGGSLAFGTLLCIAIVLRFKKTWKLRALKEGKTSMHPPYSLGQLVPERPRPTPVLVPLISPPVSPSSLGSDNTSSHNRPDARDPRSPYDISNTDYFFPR

Row | IC50, IL-6-dependent proliferation of TF-1 cells [nM] | Binder
1 | 5.59 | B1
2 | 61.3 | B2
3 | 15.6 | B3
4 | 6.2 | B4

What follows are binders tested against cynomolgus IL-6R used in Biacore (cynomolgus monkey) (assay: Biacore, periplasmic extract).

Row | koff [s⁻¹] | Binder
5 | 0.001 | B3
6 | 0.00045 | B5
7 | 0.001 | B4

What follows are binders tested against T1, human soluble IL-6R, recombinant (assay: Biacore, periplasmic extract).
Description: Periplasmic extracts of representative family clones were also analyzed on Biacore. Dissociation curves were used to calculate koff rates. koff rates are depicted in Table C-6.

Row | koff [s⁻¹] | Binder
8 | 0.001 | B3
9 | 0.00075 | B5
10 | 0.00041 | B4
11 | 0.0001 | B6

What follows are binders tested against T2, cyno IL-6R on CHO-K1 cells, clone … (assay: FMAT on CHO cells, competitor labelled Reference IgG).
Description: Eleven inhibitory Nanobodies were tested in competition with labelled Reference IgG for binding to
CHO cells expressing hIL-6R or cynoIL-6R.

Row | IC50 [nM] | Binder
12 | 27 | B1
13 | 75 | B2
14 | 30 | B3
15 | 0.8 | B7
16 | 13 | B4

These binders were tested against cynomolgus soluble IL-6R, native, in cynomolgous plasma (cynomolgus monkey) (assay: ELISA 2, cyno plasma sIL-6R, periplasmic extract, competitor IL-6).

Row | OD450 ratio sample/blank | Binder
17 | 0.6 | B6

Molecular target: T3, hybrid IL-6R
Assay: sandwich ELISA, coated hybrid IL-6R, anti-myc-HRP detection
Description: The panel of purified Nanobodies was tested by standard sandwich ELISA with coated human IL-6R versus hybrid IL-6R (see Example 3). Anti-myc-horseradish peroxidase (AbD Serotec, Oxford, UK) was used as a detection antibody. Only Nanobodies with koff rates that were low enough to give a positive signal towards human IL-6R are depicted.

Row | binding result | Binder
18 | no binding | B5
19 | no binding | B8
